The domain aggregation screens of Martell et al. (2025)

Test: soluble fraction after stress (log2 fold change); higher = more stays soluble; pooled small domains, quantitative proteomics
Conditions: stress: 50 degC
Procedure, shortened: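 Pooled custom libraries of small protein domains were each held under stress at 50°C. The read-out, high-throughput quantitative proteomics, tracked how much of each protein stayed soluble. This is reported as a base-two log fold change used to indicate aggregation propensity. Higher values mean more protein remains in solution.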

Sequence	soluble fraction (log2)
HMPAWKINQELQATVIATKANQTRLRIEGQTFETQTAIALKPGQSLLIKVVSLEPQISFALI	-1.45
HMKFLYQKAREEIISLIQDGEIKPSEKIMPERELSELLGYNRMTIKKAINSLVAEGVLMKKRGAGTFLLG	-0.387
HMTLHDLFPQAVEFVSEKEMISTAELQRKLMISYNSAAKIIDQLLHVDFIQKSESAGKYSVLIK	-2.31
HMETKIKFQIQTLDELNIRKVADWDAKAITTVKKGQILDVVDTVAAKNGSTPMYRLESGLYITASPKYVKK	-0.376
HMQGATVYIKSDDIGKTTNEQGSFNFDKLKKNRYTLEISFIGYETKNLQAYTDRENIVQLNRKS	0.248
HMEFPYISGVDVGTISNKEFARFETTKASDIVIALDKSGIPFSARFGDSEIVLTYDGSYKEEVEEIIAKV	0.0138
HMPHSTTDFSVSPDERQIVYSTNLQGRYDLWALDHNQGYPYPLTKKGQMSFFIKHLPGSQMILTGFD	0.00171
HMQTNEAIINQAVQAAEAQNITTRSQAVDALKANGMTEAQARQLAVQRGISYDQLINELFPME	-0.0275
HMDSATDRVALKELLNTLSARERTIITLRYFSDQTQTQVAKSLGISQVQVSRLENAILQRLRKL	-1.94
HMALHDTLSYEEYLDLGLNGKADSAEKRELVAHALHLGRPNAKTLYKRLNMLQLNRKDVAALLEQ	0.0249
HMARGRETILLVEDEPAVRGLVHATLRLHGYTVLEARHGIEALLTSTKFVGPIHLLLTDVVMPQMS	0.182
HMGLNPSILVKLGNANIKTIDNLADLASDELKEILEDISITSKEADEIIMRARSSWFEEDDKKEDNI	0.0789
HMEREKTYLMPDLIGRKAERVVPRLQASGFKVEDIRHVYYPGLEKGVIVRQSPPGGYPIQKRNLINLEVS	-0.333
HMGKSDDSLAAEKFIQHVRKNGELSYEQAYRMVHAYFPDFRNFEGMVSGAVKSGYLILIQKSTGLFLRAKE	-0.882
HMRSTIYEFTVPPGQLESIRLDVYITSFVENATRSKVQEAIKQGYVWVNGKHEKASYTMLPGDKIYIELPI	-1.79
HMESYTEEMLEKMSVSKLRTIARELQVDNMTREQIRFGKKTELIQNILEFTGREIENMQLYDK	-0.134
HMSNLKKRRLEKNLTLDDVGKLVGVSAATISRWESGDIENMRSDKIVKLANALEISPAVILGW	-0.0215
HMKNTFGLTEREMEVLALIVDGLSNPEIAEKLFITRATAKAHVHSILQKLYVDDRTQAAVTAMREGL	-1.23
HMRPRGTRLPTGWTPSSDALDWTKAEKPGLDPLQTLEKFRDYWTAQPGQKGVKTDWDATWRNWVRREIP	0.172
HMFIEHSKYKLSFKYNQLGKISNVINSNNGIIMDKHFDQNITLLAKLTENTFQEIIKHFPTIIIKRL	-3.19
HMGQELTPVERTALDIAARDGKVSTRILAQEAGIGLRTASKTLAALAERGLLTWHGTSRRDPQQHYTS	0.00201
HMSQPYFELAAADMEALRNALSTIREIESVVLSGKIFHVEVREDLDPGTMNKLAFERGITLTHLVKKKN	-0.0763
HMATPTMEDYIEVIYSLVKTKGYARSADIAEKLEVYPSTVTKMLKKLDAEGYIVYEKYRGIALTDIGKKMG	-1.73
HMFQYEKIKDYILTGLEEGTWQAGDKIPSEAELVMSLNVSRMTVNRAVRELANSGLLVRIPGAGTFVATE	-0.575
HMPTERLSMRRIRELLRLRFEVGLSTRLIATALGISKGAVGDYLQRAQVAGLGWPLPENLNDAALERRLFP	-0.681

Sequence	soluble fraction (log2)
HMTPNATWQDDAQNLLRDLIQHQPVLVQISAAKRLRDQAEQISRITGGETVTREHVEAAGHALGMGVT	0.0847
HMPDFLAELAARMERDAVTEAQIRQVVAQKGHYPEEVSPAQYHPDFFRQWLFPHWEKIVDVIRSSPEYTP	-0.0503
HMEPREEFTFADLRANGLNGTAAAAGRRAALGAALGIGYGNAKQFLRRLNHYGVTRSEWEAALADLDE	-0.419
HMKRREENLRRLALSTAERVKRKGKKEILNPMSPQERRIIHLTLQNNKEVVTHSEGEDPYRRVIISPRN	0.00802
HMDRRDEYHQHLLRLLLSGEIRDKDELQRRKVKLSGEYGLAGVPKNSETLALVPPDRLPEVLDILR	0.065
HMNQTEKSKITHNELLKAAHSLFIEQGFNHTTITDIVTRAGYSTGIFYKHYKTKTDILVELWTNYIE	-2.31
HMSKEIQNILASLPSVDVLLKQIDPIYPHGKAKEATQQVVARLRESVVDGTRKTVIDQKEVIAMIHKQLEE	0.143
HMPKNRTDYVQDVLKSLGRPAHYKEITQIINAMLPKEAQYSAKSIQVVLGSSPLFIRVGTGTYALVE	-0.679
HMPYNNLADAPASWKKLDDTPLTLGQVNWIAKIYDALVAKGMEKGAAAGTAISRFKKSFKVADGKWVQV	-0.0698
HMAHSDEAWSVARRVARELDKILDGAGPRRTALVRAAAELRLSTRQIYNLLARYRADRTVTSLLPRR	-0.316
HMDSYADVLSDYRGKYKTNTISGLKGLRDKIREDMLAAADSLDFEKAALLRDEMNDLNKKIELKEKT	0.505
HMGQSKNERMLELVELLNKASRSYYQDAQEIMSNYEYDRLYDELQNLEKELGITLSNSPTVN	-0.0536
HMDPSDQLYTVPPSAEGLRLDLFLVQHVPHMTRALATQLTGAGQVRVNGRRAKKGDRLPSGAQVRLEQAP	-0.256
HMPDLSYVDEVLNRYKGHKGTLITVLQQVQAHKGYLEKEALERVARSMGVPTARIYGVVTFYAQFR	0.0318
HMVDQVDKDRFLEALTQLGGSAGNVRLRETLQWEEEVYVIIKDALVKSGTILTGRGRGGSVLLASA	-1.12
HMGSNENTIREYFDSLIASASKREIMDANPTMSQRTVERILQKLQAEGYVEKIGAARSTRYRRA	-0.178
HMSLSDDIAQTLRQLGFDRDVSETLANDVLPAMPTRQDVIDLLGTLGIEKHVAADFANFVVLN	-0.723
HMLESVMHSRIAEIISREGTAPAHMSMQEKIRVVHKLDADGILMMKGAVAEIADQLSVSVPTIYRYLNKPQ	-1.8
HMNKKLEMKIEQLDLSVRLFNSLKRSGIYTVAQIIKLTEEDVMRFRSLGRKSFKELKEKLSEHGLEFE	-2.15
HMLPIGSSREQVISSLNKMHQDYKEEGNFIYAGYFKQGLPLVPSPRISIALQFNETAHLEKIDATLNYV	-0.305
HMGPVRDLGLLESAAHRPTTALWGRDVYATIEKKAAALLDSLVRDRPLADGNKRLGWLAALV	0.0437
HMRKYEAVPASVVPAQIQEYVAKSNFPNQYIRKIERNKYTWEIELSNGLEIKFDRQFNVIGFD	-1.49
HMVQDSEWWRNYQSAHDYFIQNGHLNVLRSDKKNTKLYNWIVGQRSSRWNSQGRINLLNSIGFIWDT	-3.08
HMTIKNHIDEILKKEPFILENIKNGLINISALARQIEPQLSRKVGKKLNVNAIIMTIKRMEIDQLNK	-0.989
HMTAAPEVRVEGLFKGAAVLKIDGQQVMLKKGRSHSSGVTLVDANAHRAIVEIDGQRHELALHMA	0.0499

Sequence	soluble fraction (log2)
HMESRMTYLQKTKLATENLDAKLIDHQQWVAEVLGEDYRGVYSDEYLRRAAKVFAIFVNNLDD	-2.18
HMGAARVTPLYNLRLREGPSTATARLDVVPRGTTLEVRAWDETGDWAQVEYRGQIGWIAAWLAEVEGEAP	-0.136
HMKRAVGLDEYRDSIVLKKPEGYTEESYAAYKNAYDALMALDSKETTAEMFANAKSAFEAAQAGLVQKP	0.101
HMKLKHANGNHPLTQQEKQNMIEEAAKHYGDYMTALGFDWKQDPNSSDTPMRVAKAFVNDLAEGVY	0.0454
HMDGQGIRSITPEYYLSDSATKMPDASSSGWKSVPDDYIDKHYYWVRSKILWDDGTYTTTTPVL	-0.364
HMAGTRVWSENGQLYVTAAVSGRANVYNVLGKLNRSLTFSAGETKSVSVPAGIYVVSLNNGKAYKVAV	-1.67
HMKEPIYQTILSALILELNTNHFRKNDPFYSESELRKKYQVSSTTVVRVLNMLADQGYIYRIQGKGSFVSK	-2.37
HMQAGILTDTAAKNARIKKIDTERLEAELDQKRIVIVTGFQGVDRNQNITTLGRGGSDTSAVALAAAVSIT	0.185
HMPPNHADLKSSGLKATLPRLKILEIFQNSQVRHLSAEDVYKLLLAENLDVGLATVYRVLTQFEQAGL	-0.475
HMKGIHDYITKDGLRVVKVHYSADPDKDVTTVEGKKWMAKALLGYPGGLEGAKWRREMEIDFNA	-0.0848
HMGAVFEFIMEEEEPERIDKLLSSALPDLSRSYLQKLVKEGAVLVNKKEVKPNHKVNPGDVVEISVPEPE	0.18
HMLKNYATPEQRAQLDMLKDKGIIGENELMQLGKYPSQDKASEVLENHADAVKMLDSDEISNRAEAIRSHD	0.134
HMTSPKSRIVSALLASPSRPEELAMRLGEDILTLMRTLTDFEASGIIQRLPDGRYTPTREYHLGLVDK	0.0852
HMSYSYIYNYALKVKMDISSTGGKKPYAYYYYDHSYKLAEEILSLSEETESIELQNKYDELKDFYENP	-1.32
HMPNYIDAISALLTLKGVGDRKHASTMANILNLQYNSAKQKLDGKRGITLDEVKKVFQYFNEPF	-1.1
HMDGIIIPDVSGKSYAEAVATLNEKGFKVEKGEDAGSSLAKDLVSYTNPAAGNRAKSGATISVFVSTGANA	0.17
HMTMLLEYNVSRSSKWMNKTIMDAEIPDDILIVMIKRNGQVIVPKGSTEILENDILVLSGNNLNEVALG	-2.33
HMALALDDLFDRYEQLQDQSLGDKTEEGQELRAMIRAYIEQEGLSVRVTRSTTNRELLELIEQEMEG	-0.174
HMGIRDIHITVNGESLKLSKKQNYIFVDIFDFYPFDLSILGGSKLITTINGEQAEFTSPLKDGDVVELYWK	-0.61
HMAGAPANLAARLREQILQGAYHDGQRLPAERHLAAEHGVSRGTVREALRLLEQGALLTRKRGSGSYVTYP	-0.314
HMISAVDLMAARRKIEAGITNLQPGQAFTLPNKVGWVKRMTGGSYFIQGNGGYTASVRTISEAIQAAAMLL	-0.394
HMLPVLEIGTMIRIIRQPHFGTIARVVALPEELTKVESETLVRILDAEFDDGTRVRIPRANVEVIE	-1.25
HMAFKDDDVQKAYDRYMDRYGELSVLYSDNGLKVDDDLFYKNNIPPNGKFTKEFFDELYELVNMEFINNY	-0.0827
HMEQWVSIEVEPGIRLDVALTEATQKSRSFIQNLIAEQRVLVNGQPKKANYKVRPGDHVELNYPEPT	0.0849
HMDSGFMRTTQSYTVARLAEIFRLSGEDYLAVLREYDGWYQDLTSTKDLIRKGSDVPVPEGV	-1.61
